How the values were obtained:
[1] = target: hyperphosphorylated R-topo I (CK2-treated baculovirus-expressed recombinant human topo I) (human) (UniProt P11387)
[2] = target: basal phosphorylated baculovirus-expressed recombinant human topo I (R-topo I) (human) (UniProt P11387); details: scale: % of supercoiled plasmid converted to the relaxed form
[3] = target: hyperphosphorylated R-topo I (CK2-treated baculovirus-expressed recombinant human topo I) (human) (UniProt P11387); details: scale: % of supercoiled DNA converted to the relaxed form
p14ARF (ARF) = p14ARF (ARF) (UniProt Q8N726); assay: anti-FLAG IP, ARF Western; details: reference: wild-type full-length topo I (construct 6); sites S506

With “recombinant thioredoxin-human ARF fusion protein (from UniProt Q8N726 1-132) (natural protein)” the non-covalent association of R-topo I with radiolabeled plasmid DNA (DNA co-immunoprecipitated with topo I; 75 mM NaCl, 4°C), ARF added at a 1:1 molar ratio; ~60% without ARF (% of input DNA) [1] was 80, the relaxation of supercoiled plasmid DNA by R-topo I with ARF added (about 40% without ARF) [2] was 50 and the relaxation of supercoiled plasmid DNA by R-topo I with ARF added (∼70% without ARF) [3] was 100.
For “topoisomerase I (topo I) (from UniProt P11387) S506A full-length topo I (construct 9)”, the “binding against the reference” value (p14ARF (ARF)) was “weaker”.

From article PMC3608632
